This note sets out measurements from US20260097138A1, “BIOMATERIAL COATED NANOSTRUCTURES FOR PHOTOACOUSTIC IMAGING AND PHOTOTHERMAL THERAPY OF TUMOR LESIONS” (OSPEDALE SAN RAFFAELE S.R.L., priority 2022, published 2026).

For assay [1], the target named is human integrin β1 subunit on the surface of human urothelial and bladder carcinoma cells (human) (UniProt P05556). Description: flow cytometry on RT112 bladder carcinoma cells, 5 µg/ml antibody.
Assay [2] has the same target. Briefly: flow cytometry on HBLAK primary urothelial cells, 5 µg/ml antibody.
For assay [3] the target is unchanged. Description: flow cytometry on PCS-420-010 primary urothelial cells, 5 µg/ml antibody.
Assay [4] shares this target. Briefly: flow cytometry on 5637 bladder carcinoma cells, 5 µg/ml antibody.
Assay [5] shares this target. Briefly: flow cytometry on RT4 bladder carcinoma cells, 5 µg/ml antibody.
For assay [6] the target is unchanged. Description: flow cytometry on HT1376 bladder carcinoma cells, 5 µg/ml antibody.
The subject of assay [7] is MB49-Luc cells. Description: Binding of Iso4-Qdot / ARA-Qdot to cells (FACS). The class given is cell-based, murine. The conditions noted are these: flow cytometry, 2 h at 37° C. As for the experimental part:
(§1) The binding of Iso4-Qdot and ARA-Qdot to MB49-Luc and 5637 cells was assessed through FACS and fluorescence microscopy experiments. FACS analysis was carried out as follows: the cells were detached with DPBS containing 5 mM EDTA pH 8.0 (DPBS-E), washed with DPBS, and suspended in 25 mM Hepes buffer, pH 7.4, containing 150 mM sodium chloride, 1 mM magnesium chloride, 1 mM manganese chloride, 1% BSA (binding buffer-1) and Iso4- or ARA-Qdot (range 30-0 nM, 5×10^5 cells/100 μl tube). After 2 h of incubation at 37° C., the cells were washed with binding buffer-1 without BSA and fixed with 4% formaldehyde. Bound fluorescence was detected using a CytoFLEX S cytofluorimeter (Beckman Coulter). The binding of Iso4-Qdot and ARA-Qdot to living 5637 cells was analyzed as follows: 5637 cells were cultured in a 96-well clear bottom black plate (5×10^4 cells/well) for 48 h, 5% CO2, 37° C. The plates were washed with binding buffer-1 and incubated with Iso4-Qdot or ARA-Qdot solution (30 nM in binding buffer-1) for 2 h at 37° C., 5% CO2. The cells were then washed with binding buffer-1, and fixed with 3% paraformaldehyde and 2% sucrose for 20 min. Bound fluorescence was acquired using the Cellomics ArrayScan XTI Studio Scan (Thermo Fischer Scientific) system.

Assay [8] relates to 5637 cells. Description: Binding of Iso4-Qdot / ARA-Qdot to cells (FACS, fluorescence microscopy). The class given is cell-based, human. The conditions noted are these: flow cytometry and fluorescence microscopy, 2 h at 37° C. As for the experimental part: as §1
Assay [9] concerns the target mouse integrin α5 subunit on the surface of MB49-Luc cells (mouse) (UniProt P11688). Description: flow cytometry on MB49-Luc cells, 5 µg/ml antibody.
The target of the next assay is T1, human integrin α5β1 (Homo sapiens, UniProt P05556+P08648).
T1 construct: purchased Immunological Sciences (Rome, Italy)
Description: α5β1 integrin binding assay with HRP conjugates. Conditions: for binding of HRP conjugate to plates coated with α5β1: no detergent in buffers, OPD substrate. The protocol: The final products were called Iso4-HRP and ARA-HRP. The conjugates were diluted (range 0-400 nM) in 25 mM Tris-HCl, pH 7.4, containing 150 mM sodium chloride, 1 mM magnesium chloride, 1 mM manganese chloride and 1% BSA (binding buffer-2) and added to 96-well plate polyvinyl chloride (PVC) microtiter plates (Carlo Erba, cod. FA5280100) coated with or without α5β1 (4 μg/ml) and left to incubate for 2 h. The plates were washed with 25 mM Tris-HCl, pH 7.4, containing 150 mM of sodium chloride, 1 mM of magnesium chloride, 1 mM of manganese chloride, and bound peroxidase was detected by adding a chromogenic solution (o-phenylenediamine dihydrochloride, OPD). The chromogenic reaction was stopped by adding 1 N sulfuric acid. The absorbance at 490 nm was then measured using a microtiter plate reader. The effect of human urine (from a healthy donor) on the binding of Iso4-HRP was studied as described above by mixing Iso4-HRP (300 nM final concentration) and various amounts of urine diluted in binding buffer-2.

Assay [10] addresses human integrin α5 subunit on the surface of human urothelial and bladder carcinoma cells (human) (UniProt P08648). Description: flow cytometry on RT112 bladder carcinoma cells, 5 µg/ml antibody.
The target is the same in assay [11]. Description: flow cytometry on HBLAK primary urothelial cells, 5 µg/ml antibody.
Assay [12] has the same target. Briefly: flow cytometry on PCS-420-010 primary urothelial cells, 5 µg/ml antibody.
For assay [13] the target is unchanged. Description: flow cytometry on 5637 bladder carcinoma cells, 5 µg/ml antibody.
Assay [14] shares this target. Briefly: flow cytometry on RT4 bladder carcinoma cells, 5 µg/ml antibody.
Assay [15] has the same target. Description: flow cytometry on HT1376 bladder carcinoma cells, 5 µg/ml antibody.
In assay [16] the test system is MB49-Luc derived orthotopic bladder tumor. Briefly: PAI of orthotopic MB49-Luc bladder tumor after intravesical instillation. The conditions noted are these: intravesical co-administration. The class given is in vivo, mice. The protocol: Murine orthotopic bladder tumor model: All procedures and studies involving mice were approved by the Institutional Animal Care and Use Committee of San Raffaele Scientific Institute and performed according to the prescribed guidelines (IACUC, approval number 942). Female albino C57BL/6J mice (9 weeks old, weighing about 20 g, Charles River Laboratories, Italy) were anesthetized with ketamine (80 mg/kg) and xylazine (15 mg/kg) and kept in dorsal position. Using a 24-gauge catheter, the bladder of each mouse was emptied and instilled with or without MB49-Luc cells (10^5 cells/100 μl in DPBS). Thirty minutes later the catheter was removed, and mice were allowed to recover and returned to their cage. Tumor growth was monitored by measuring the tumor volume through US imaging (see below) and in vivo bioluminescent quantification after administration of luciferin (15 mg/kg, intra peritoneum) using the non-invasive In Vivo Imaging System (IVIS, PerkinElmer, USA).
US and PAI of GNRs@Chit and GNRs@Chit-Iso4: High-resolution US and PA imaging have been acquired using the Vevo LAZR-X platform (FUJIFILM VisualSonics, Inc., Toronto, ON, Canada). The imaging platform includes a high frequency US system (Vevo 3100) combined with an Nd:YAG nano-second pulsed laser with repetition rate of 20 Hz. The linear US transducer array Mx 550D consists of 256 elements with a nominal center frequency of 40 MHz (25-55 MHz bandwidth) and a spatial resolution of 40 μm with a maximum imaging depth of 15 mm. Light from the laser is delivered to the tissue through optical fibers mounted on either side of the transducer. During volumetric US-PA acquisitions, a stepper motor is used for the linear translation of the US transducer and optical fibers along the sample. The linear stepper motor moves in steps of a minimum of 0:1 mm while capturing 2-D parallel images, for a maximum 3D range distance of 6.4 cm.
3D B mode scan was carried out for in vitro (drop) and in vivo (mouse bladder) studies. The photoacoustic spectra between 680 nm and 970 nm were scanned with a step size of 5 nm; for the in vivo studies (murine bladder) the 3D multispectral PA scans were acquired selecting PA spectral curve of tissue components melanin, deoxy- and oxy-generated blood, and GNRs; the processed wavelengths (680; 722; 764; 810; 924; 970 nm) were automatically selected from the spectral curve used to spectrally unmix the GNRs signal from other endogenous tissue chromophore signals such as oxy, deoxy hemoglobin. The algorithm reported by Luke et al was used to select these wavelengths which is ideal for separating the signal from GNRs from other endogenous absorbers.
Data analyses were conducted using the Vevo® Lab software; volumes of interest were obtained by manually drawing Volumes of Interest (VOIs) on 3D B-mode images. GNRs, melanin, oxy- and deoxy-hemoglobin content were estimated through spectral unmixing analyses of the spectroscopic data.

For assay [17], the system named is 5637 cells. Description: Cell adhesion assay on coated microtiter plates. The class given is cell-based, human. The conditions noted are these: plates coated with 250 μg/ml GNRs. The protocol: (§2) The plates were washed and blocked with 2% BSA in DMEM or RPMI-1640 (200 μl/well, 1 h). MB49-Luc and 5637 cells were detached with DPBS-E, washed twice with DPBS, and suspended in DMEM or RPMI-1640 containing 0.1% BSA (binding buffer-3), and added to the coated-plates (1.5×10^5 cells/well, 100 μl). After 1-2 h of incubation at 37° C., 5% CO2, the plates were washed with binding buffer-3. Adherent cells were fixed and stained with 0.5% crystal violet in 20% methanol. After washing with water, the dye was extracted from cells using a 10% acetic acid solution (140 μl/well) and the absorbance at 570 nm was measured using a microplate reader.

Assay [18] concerns MB49-Luc cells. Briefly: Cell adhesion assay on coated microtiter plates. It counts as cell-based, murine. The conditions noted are these: MB49-Luc cells; plates coated with 250 μg/ml GNRs. The protocol: as §2
Assay [19] addresses mouse integrin β1 subunit on the surface of MB49-Luc cells (mouse) (UniProt P09055). Briefly: flow cytometry on MB49-Luc cells, 5 µg/ml antibody.
In assay [20] the target is α5β1 integrin on human 5637 bladder cancer cells (human, UniProt P08648 42-1049; P05556 21-798). Description: cell-based or functional assay.
The target of assay [21] is α5β1 integrin on murine MB49-Luc bladder cancer cells (mouse, UniProt P11688 45-1053; P09055 21-798). Briefly: cell-based or functional assay.

Starred links: 1 amine or outer side, 2 acyl side, 3 side chain; linkers in the order of their positions; H or OH if unused. Positions of bridges follow the written chain, without caps; N, C: chain ends. Non-standard residues stand in square brackets, D forms with d. Residues, ends and D or L forms follow the SMILES beside them. βAsp = O=C(O)[C@H](CC(=O)[*:2])N[*:1]; dPhg = N[C@@H](C(=O)O)c1ccccc1; Phg = N[C@H](C(=O)O)c1ccccc1

human integrin β1 subunit on the surface of human urothelial and bladder carcinoma cells (human), sequence (P05556 21-798): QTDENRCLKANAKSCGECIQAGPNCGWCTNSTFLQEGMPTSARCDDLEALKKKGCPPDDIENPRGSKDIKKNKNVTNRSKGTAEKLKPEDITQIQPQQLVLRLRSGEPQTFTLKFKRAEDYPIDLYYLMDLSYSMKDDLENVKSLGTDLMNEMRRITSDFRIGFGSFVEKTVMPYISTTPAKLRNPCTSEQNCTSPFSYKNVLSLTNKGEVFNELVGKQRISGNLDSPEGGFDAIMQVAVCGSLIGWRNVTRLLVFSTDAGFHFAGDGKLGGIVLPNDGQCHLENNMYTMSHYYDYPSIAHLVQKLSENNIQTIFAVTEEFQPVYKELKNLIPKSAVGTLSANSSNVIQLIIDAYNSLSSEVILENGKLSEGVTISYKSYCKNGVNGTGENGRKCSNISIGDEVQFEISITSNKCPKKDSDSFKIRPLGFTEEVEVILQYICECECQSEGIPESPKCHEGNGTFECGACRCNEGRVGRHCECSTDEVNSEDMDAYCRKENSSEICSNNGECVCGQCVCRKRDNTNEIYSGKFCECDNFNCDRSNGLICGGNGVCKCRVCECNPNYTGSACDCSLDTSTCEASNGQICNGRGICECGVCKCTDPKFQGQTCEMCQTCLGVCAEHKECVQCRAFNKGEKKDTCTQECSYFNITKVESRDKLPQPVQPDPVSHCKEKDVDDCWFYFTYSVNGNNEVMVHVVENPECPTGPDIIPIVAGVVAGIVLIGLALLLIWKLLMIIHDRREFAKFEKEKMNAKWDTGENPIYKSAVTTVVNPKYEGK
T1 sequence (P08648 42-894 limits assumed): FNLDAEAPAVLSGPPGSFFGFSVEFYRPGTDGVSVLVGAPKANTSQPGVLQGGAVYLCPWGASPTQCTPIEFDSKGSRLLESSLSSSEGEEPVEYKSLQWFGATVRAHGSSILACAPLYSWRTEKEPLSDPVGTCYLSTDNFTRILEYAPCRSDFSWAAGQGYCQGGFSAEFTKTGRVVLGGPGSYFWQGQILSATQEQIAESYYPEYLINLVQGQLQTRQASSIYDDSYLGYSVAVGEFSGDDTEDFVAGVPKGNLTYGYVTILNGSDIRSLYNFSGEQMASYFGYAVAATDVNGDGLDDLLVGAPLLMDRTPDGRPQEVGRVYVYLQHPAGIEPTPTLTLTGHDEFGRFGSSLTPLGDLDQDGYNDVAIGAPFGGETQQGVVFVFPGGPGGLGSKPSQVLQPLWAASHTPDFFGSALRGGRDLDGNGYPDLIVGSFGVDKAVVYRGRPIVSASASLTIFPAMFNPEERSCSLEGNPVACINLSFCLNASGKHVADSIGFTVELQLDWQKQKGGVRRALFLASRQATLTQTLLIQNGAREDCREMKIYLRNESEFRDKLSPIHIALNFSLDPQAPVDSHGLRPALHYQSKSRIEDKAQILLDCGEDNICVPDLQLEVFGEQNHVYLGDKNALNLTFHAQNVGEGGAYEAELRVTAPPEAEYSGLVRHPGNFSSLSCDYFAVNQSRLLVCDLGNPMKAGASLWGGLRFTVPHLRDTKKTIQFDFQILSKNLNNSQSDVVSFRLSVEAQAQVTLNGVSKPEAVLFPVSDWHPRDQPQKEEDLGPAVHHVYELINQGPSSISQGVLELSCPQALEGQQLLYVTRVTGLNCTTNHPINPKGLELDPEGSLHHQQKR
T1 sequence (P08648 895-1049 partner limits assumed): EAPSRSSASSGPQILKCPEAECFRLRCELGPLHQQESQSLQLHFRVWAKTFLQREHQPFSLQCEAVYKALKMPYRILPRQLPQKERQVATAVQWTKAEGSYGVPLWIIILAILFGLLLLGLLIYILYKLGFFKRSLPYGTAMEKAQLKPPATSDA
T1 sequence (P05556 21-798): as the sequence (P05556 21-798) above
human integrin α5 subunit on the surface of human urothelial and bladder carcinoma cells (human), sequence (P08648 42-1049): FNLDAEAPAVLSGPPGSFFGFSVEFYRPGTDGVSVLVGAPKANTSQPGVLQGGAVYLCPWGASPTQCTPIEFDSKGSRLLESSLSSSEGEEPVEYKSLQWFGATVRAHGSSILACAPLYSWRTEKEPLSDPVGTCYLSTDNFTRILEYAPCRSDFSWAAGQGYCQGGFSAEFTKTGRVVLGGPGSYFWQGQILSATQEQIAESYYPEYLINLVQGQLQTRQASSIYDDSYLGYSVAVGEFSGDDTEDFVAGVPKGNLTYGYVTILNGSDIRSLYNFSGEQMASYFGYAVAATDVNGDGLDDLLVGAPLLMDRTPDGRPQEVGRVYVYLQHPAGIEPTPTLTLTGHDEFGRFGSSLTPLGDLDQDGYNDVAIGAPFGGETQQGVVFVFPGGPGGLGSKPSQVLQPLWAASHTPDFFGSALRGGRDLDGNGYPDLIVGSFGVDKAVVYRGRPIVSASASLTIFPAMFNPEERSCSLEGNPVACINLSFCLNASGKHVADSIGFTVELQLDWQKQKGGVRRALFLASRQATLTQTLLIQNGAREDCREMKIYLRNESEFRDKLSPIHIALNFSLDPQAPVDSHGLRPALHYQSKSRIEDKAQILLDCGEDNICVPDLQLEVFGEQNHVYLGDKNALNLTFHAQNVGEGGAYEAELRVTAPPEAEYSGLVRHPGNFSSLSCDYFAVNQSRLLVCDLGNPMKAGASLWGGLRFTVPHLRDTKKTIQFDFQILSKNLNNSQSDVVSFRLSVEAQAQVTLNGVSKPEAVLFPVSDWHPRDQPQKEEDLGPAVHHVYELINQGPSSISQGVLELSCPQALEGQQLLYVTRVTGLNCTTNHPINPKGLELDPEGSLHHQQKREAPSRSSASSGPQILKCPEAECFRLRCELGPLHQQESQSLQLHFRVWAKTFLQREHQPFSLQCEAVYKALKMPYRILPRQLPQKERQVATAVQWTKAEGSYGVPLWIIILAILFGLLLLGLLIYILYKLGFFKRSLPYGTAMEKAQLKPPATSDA
mouse integrin β1 subunit on the surface of MB49-Luc cells (mouse), sequence (P09055 21-798): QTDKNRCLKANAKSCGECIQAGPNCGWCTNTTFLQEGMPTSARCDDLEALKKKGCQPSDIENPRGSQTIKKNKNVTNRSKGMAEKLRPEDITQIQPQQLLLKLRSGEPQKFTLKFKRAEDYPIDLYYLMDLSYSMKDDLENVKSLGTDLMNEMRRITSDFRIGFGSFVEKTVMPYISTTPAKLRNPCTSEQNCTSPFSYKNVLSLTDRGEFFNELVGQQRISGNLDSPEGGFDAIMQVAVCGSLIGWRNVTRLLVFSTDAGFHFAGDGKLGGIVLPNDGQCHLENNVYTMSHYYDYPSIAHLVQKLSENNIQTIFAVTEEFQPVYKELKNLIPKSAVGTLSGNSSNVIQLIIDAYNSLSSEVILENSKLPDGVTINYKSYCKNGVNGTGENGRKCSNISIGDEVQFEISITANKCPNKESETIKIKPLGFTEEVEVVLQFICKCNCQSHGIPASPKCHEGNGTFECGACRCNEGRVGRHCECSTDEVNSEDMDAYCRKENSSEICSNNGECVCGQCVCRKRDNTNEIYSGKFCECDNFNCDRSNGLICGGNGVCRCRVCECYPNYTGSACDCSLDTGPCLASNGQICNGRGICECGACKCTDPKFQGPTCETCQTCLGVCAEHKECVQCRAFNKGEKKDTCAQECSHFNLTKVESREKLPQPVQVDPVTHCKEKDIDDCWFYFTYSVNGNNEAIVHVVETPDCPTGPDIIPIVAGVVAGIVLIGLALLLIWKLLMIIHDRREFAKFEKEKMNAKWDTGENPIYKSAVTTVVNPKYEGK
α5β1 integrin on human 5637 bladder cancer cells, sequence (P08648 42-1049, chain 1 of 2): as the sequence (P08648 42-1049) above
α5β1 integrin on human 5637 bladder cancer cells, sequence (P05556 21-798, chain 2 of 2): as the sequence (P05556 21-798) above
mouse integrin α5 subunit on the surface of MB49-Luc cells (mouse), sequence (P11688 45-1053): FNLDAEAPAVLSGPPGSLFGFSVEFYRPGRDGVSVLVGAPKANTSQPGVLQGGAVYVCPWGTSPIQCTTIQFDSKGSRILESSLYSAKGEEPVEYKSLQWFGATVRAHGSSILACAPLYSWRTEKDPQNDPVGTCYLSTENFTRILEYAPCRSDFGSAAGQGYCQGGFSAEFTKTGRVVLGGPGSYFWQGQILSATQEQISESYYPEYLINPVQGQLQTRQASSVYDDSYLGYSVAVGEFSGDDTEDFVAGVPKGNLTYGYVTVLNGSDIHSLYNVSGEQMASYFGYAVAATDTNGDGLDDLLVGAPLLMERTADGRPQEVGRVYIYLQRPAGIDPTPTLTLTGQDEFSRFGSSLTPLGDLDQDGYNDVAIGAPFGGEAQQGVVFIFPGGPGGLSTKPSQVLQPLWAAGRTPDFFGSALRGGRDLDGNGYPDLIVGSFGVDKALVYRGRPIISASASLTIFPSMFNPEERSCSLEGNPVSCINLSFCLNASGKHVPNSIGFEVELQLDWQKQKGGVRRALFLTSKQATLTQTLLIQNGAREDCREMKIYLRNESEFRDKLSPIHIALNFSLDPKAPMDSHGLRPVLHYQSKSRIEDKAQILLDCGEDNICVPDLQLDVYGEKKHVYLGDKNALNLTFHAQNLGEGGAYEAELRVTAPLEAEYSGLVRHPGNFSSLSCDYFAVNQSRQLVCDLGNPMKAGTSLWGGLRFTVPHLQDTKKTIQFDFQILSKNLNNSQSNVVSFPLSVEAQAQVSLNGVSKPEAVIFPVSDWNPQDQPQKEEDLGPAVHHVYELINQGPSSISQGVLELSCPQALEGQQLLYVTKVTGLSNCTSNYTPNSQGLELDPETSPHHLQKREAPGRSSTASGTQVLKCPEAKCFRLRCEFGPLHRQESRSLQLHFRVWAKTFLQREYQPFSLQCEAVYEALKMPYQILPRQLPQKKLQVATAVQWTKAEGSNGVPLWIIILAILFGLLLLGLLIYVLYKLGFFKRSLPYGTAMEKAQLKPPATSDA
α5β1 integrin on murine MB49-Luc bladder cancer cells, sequence (P11688 45-1053, chain 1 of 2): as the sequence (P11688 45-1053) above
α5β1 integrin on murine MB49-Luc bladder cancer cells, sequence (P09055 21-798, chain 2 of 2): as the sequence (P09055 21-798) above

Regarding “anti-β1 integrin mouse monoclonal antibody, clone P5D2”, the Fold (median fluorescence intensity over isotype control) in [1] amounted to 38.7 fold; in assay [2] it was 0.8 fold; in assay [3], 1.2 fold; in assay [4], 40.5 fold; in assay [5], 18.6 fold; in [6], 11.9 fold.

“ARA-Qdot: c(CGARAG) peptide coupled to Qdot, negative control (cyclo(CGARAG); not fully specified (residue 1); also: coupled to Qdot605 quantum dot via Cys thiol)”: the “binding of Qdot conjugate to cells” value in the assay on MB49-Luc cells [7] was “but not the ARA-Qdot, bound these cells”; in the assay on 5637 cells [8] it was “but not the ARA-Qdot, bound these cells”.

In assay [9], “anti-α5 integrin hamster monoclonal antibody, clone HMα5-1” displayed a Fold (mean fluorescence intensity over isotype control) of 3.79 fold.

As to “Iso4-HRP: Iso4 conjugated to maleimide-activated horseradish peroxidase via thiol group”, the “recovery of binding to α5β1 in human urine” value in the assay with human integrin α5β1 (in 90% of urine, Iso4-HRP 300 nM) was “about 55%”. The “binding of HRP conjugate to plates coated with α5β1” value with human integrin α5β1 is “could bind α5β1 in a dose dependent manner”.

Regarding “anti-α5 integrin mouse monoclonal antibody, clone P1D6”, the Fold (median fluorescence intensity over isotype control) in assay [10] was found to be 5.8 fold; in assay [11], 2.1 fold; in assay [12] it was 1.5 fold; in assay [13] it was 1.9 fold; in assay [14] it was 6 fold; in [15], 4.1 fold.

Consider “Iso4-Qdot: Iso4 coupled to fluorescent nanoparticles (Quantum Dots, Qdot) via the sulfhydryl group of the cysteine”, for which the “binding of Qdot conjugate to cells” value in the assay on MB49-Luc cells [7] and in the assay with 5637 cells [8] was “bound these cells” each time.

Take “ARA-HRP: HRP control conjugate using the ARA peptide instead of Iso4”: in the assay with human integrin α5β1, the “binding of HRP conjugate to plates coated with α5β1” value is “but not ARA-HRP, could bind α5β1 in a dose dependent manner”.

Turning to `N=C(N)NCCC[C@@H]1NC(=O)CNC(=O)C[C@@H](C(=O)O)NC(=O)[C@H](c2ccccc2)NC(=O)[C@H](CS)NC(=O)CNC1=O` [Iso4, c(CphgisoDGRG), reference compound] (GRGC[Phg]D-OH; lactam N-6), the “effect of co-administered excess free peptide on binding of GNR@Chit-Iso4 to MB49-Luc tumors” value in assay [16] is recorded as “reduced”. Also, the “effect of excess free peptide on cell adhesion to GNRs@Chit-Iso4-coated plates” value in the assay on 5637 cells [17] and with MB49-Luc cells [18] was “completely inhibited cell adhesion” each time.

For “anti-β1 integrin hamster monoclonal antibody, clone HMβ1-1”, the Fold (mean fluorescence intensity over isotype control) in [19] is 8.02 fold.

B1: GNRs@Chit-Iso4 (gold nanorods coated with thiolated chitosan, carrying Iso4 via maleimide-PEG12-NHS) (other)
peptide: cyclo(C[dPhg][βAsp]GRG)
modifications: not fully specified (residue 1); also: Cys thiol coupled via maleimide-PEG12-NHS linker to thiolated-chitosan-coated gold nanorods
Regarding B1, the entries for the “effective concentration 50 (EC50) of cell adhesion to plates coated with GNRs@Chit-Iso4” value in assay [20] and in assay [21] were 1.3 µg/mL and 0.73 µg/mL, respectively.
